The data set is described as follows: total protein half-life in vivo (active degradation + dilution); higher = more stable protein.
Setting [1] is: E. coli NCM3722 delta-clpP delta-lon delta-hslV, growth: N-lim chemostat, doubling time 6 h.
[2] abbreviates: E. coli NCM3722 delta-clpP, growth: N-lim chemostat, doubling time 6 h.
Setting [3] is: E. coli NCM3722 delta-hslV, growth: N-lim chemostat, doubling time 6 h.
Where [4] appears, read: E. coli NCM3722 delta-lon, growth: N-lim chemostat, doubling time 6 h.
Where [5] appears, read: E. coli NCM3722 delta-smpB, growth: N-lim chemostat, doubling time 6 h.
The mark [6] stands for this setting: wild type E. coli NCM3722, growth: C-lim chemostat, doubling time 3 h.
Where [7] appears, read: wild type E. coli NCM3722, growth: C-lim chemostat, doubling time 6 h.
[8] abbreviates: wild type E. coli NCM3722, growth: C-lim chemostat, doubling time 12 h.
Setting [9] is: wild type E. coli NCM3722, growth: N-lim chemostat, doubling time 6 h.
Setting [10] is: wild type E. coli NCM3722, growth: N-lim chemostat, doubling time 12 h.
Setting [11] is: wild type E. coli NCM3722, growth: P-lim chemostat, doubling time 6 h.
The mark [12] stands for this setting: wild type E. coli NCM3722, growth: P-lim chemostat, doubling time 12 h.

The results in this text go back to the supplement of paper PMC11246515.

± gives the standard deviation of the averaged measurements.

Take “MRKFTLNIFTLSLGLAVMPMVEAAPTAQQQLLEQVRLGEATHREDLVQQSLYRLELIDPNNPDVVAARFRSLLRQGDIDGAQKQLDRLSQLAPSSNAYKSSRTTMLLSTPDGRQALQQARLQATTGHAEEAVASYNKLFNGAPPEGDIAVEYWSTVAKIPARRGEAINQLKRINADAPGNTGLQNNLALLLFSSDRRDEGFAVLEQMAKSNAGREGASKIWYGQIKDMPVSDASVSALKKYLSIFSDGDSVAAAQSQLAEQQKQLADPAFRARAQGLAAVDSGMAGKAIPELQQAVRANPKDSEALGALGQAYSQKGDRANAVANLEKALALDPHSSNNDKWNSLLKVNRYWLAIQQGDAALKANNPDRAERLFQQARNVDNTDSYAVLGLGDVAMARKDYPAAERYYQQTLRMDSGNTNAVRGLANIYRQQSPEKAEAFIASLSASQRRSIDDIERSLQNDRLAQQAEALENQGKWAQAAALQRQRLALDPGSVWITYRLSQDLWQAGQRSQADTLMRNLAQQKSNDPEQVYAYGLYLSGHDQDRAALAHINSLPRAQWNSNIQELVNRLQSDQVLETANRLRESGKEAEAEAMLRQQPPSTRIDLTLADWAQQRRDYTAARAAYQNVLTREPANADAILGLTEVDIAAGDKAAARSQLAKLPATDNASLNTQRRVALAQAQLGDTAAAQRTFNKLIPQAKSQPPSMESAMVLRDGAKFEAQAGDPTQALETYKDAMVASGVTTTRPQDNDTFTRLTRNDEKDDWLKRGVRSDAADLYRQQDLNVTLEHDYWGSSGTGGYSDLKAHTTMLQVDAPYSDGRMFFRSDFVNMNVGSFSTNADGKWDDNWGTCTLQDCSGNRSQSDSGASVAVGWRNDVWSWDIGTTPMGFNVVDVVGGISYSDDIGPLGYTVNAHRRPISSSLLAFGGQKDSPSNTGKKWGGVRADGVGLSLSYDKGEANGVWASLSGDQLTGKNVEDNWRVRWMTGYYYKVINQNNRRVTIGLNNMIWHYDKDLSGYSLGQGGYYSPQEYLSFAIPVMWRERTENWSWELGASGSWSHSRTKTMPRYPLMNLIPTDWQEEAARQSNDGGSSQGFGYTARALLERRVTSNWFVGTAIDIQQAKDYAPSHFLLYVRYSAAGWQGDMDLPPQPLIPYADW”: the “total protein half-life in vivo” value was found to be 6.16 ± 0.12 h under setting [1]; 6.7 ± 0.36 h under setting [2]; 6.74 ± 0.87 h under setting [3]; 6.13 ± 0.61 h under setting [4]; 5.66 ± 0.14 h under setting [5]; 3.2 ± 0.16 h under setting [6]. Further, the “total protein half-life in vivo” value is, setting by setting: under setting [7], 6.39 ± 0.4 h; under setting [8], 11.2 ± 1.1 h; under setting [9], 6.4455 ± 0.00019 h; under setting [10], 13.8 ± 0.91 h; under setting [11], 6.24 ± 0.29 h; under setting [12], 13.3 ± 0.38 h.
In the case of “MKLIPRSSDISPGIDGICPGPFPPNGFTVLTDAAYGNGDCFGLYWPIGQEHKLPIVCETYHDEWRIVPAFSSIKKFEEWLEVNDDDPHENGISIEDQDFAANLFRVARKCLSTGRLDDALPLLQRATEQLPEVSEYWLALAIQYRRCKKTEAAAQAALNAYLGNWAFGVPDNKVIHLLSQAADVPNFQDDPVIQCIKEQGLDLSFGGTKENNNYPLMQMCVDTYFAQRKPLQALTLLHNYAWIMSSETTAFQERYDFNIDEWRAKFRQLCLEYFGDSRTQFT”, the “total protein half-life in vivo” value was found to be 3.49 h under setting [1]; 3.01 h under setting [3]; 3.03 ± 0.077 h under setting [5]; 2.62 ± 0.22 h under setting [6]; 4.63 ± 0.52 h under setting [7]; 8.76 h under setting [8]. Further, the “total protein half-life in vivo” value is, setting by setting: under setting [9], 3.47 ± 0.64 h; under setting [10], 5.75 ± 0.36 h; under setting [12], 9.99 h.
As to “MRFIIRTVMLIALVWIGLLLSGYGVLIGSKENAAGLGLQCTYLTARGTSTVQYLHTKSGFLGITDCPLLRKSNIVVDNG [Q2MB16]”, the “total protein half-life in vivo” value runs as follows: under setting [1], 7.32 ± 0.77 h; under setting [2], 6.25 h; under setting [5], 6.03 ± 1.1 h; under setting [8], 14 ± 1.4 h; under setting [9], 5.45 h; under setting [12], 14 ± 2.2 h.
For the sequence “MERIVVTLGERSYPITIASGLFNEPASFLPLKSGEQVMLVTNETLAPLYLDKVRGVLEQAGVNVDSVILPDGEQYKSLAVLDTVFTALLQKPHGRDTTLVALGGGVVGDLTGFAAASYQRGVRFIQVPTTLLSQVDSSVGGKTAVNHPLGKNMIGAFYQPASVVVDLDCLKTLPPRELASGLAEVIKYGIILDGAFFNWLEENLDALLRLDGPAMAYCIRRCCELKAEVVAADERETGLRALLNLGHTFGHAIEAEMGYGNWLHGEAVAAGMVMAARTSERLGQFSSAETQRIITLLKRAGLPVNGPREMSAQAYLPHMLRDKKVLAGEMRLILPLAIGKSEVRSGVSHELVLNAIADCQSA”, the “total protein half-life in vivo” value under setting [1] is 4.67 ± 1.3 h; the “total protein half-life in vivo” value under setting [2] was 3.73 ± 0.43 h; the “total protein half-life in vivo” value under setting [3] is 3.46 ± 0.2 h; the “total protein half-life in vivo” value under setting [4] was determined as 3.72 ± 0.1 h; the “total protein half-life in vivo” value under setting [5] worked out at 3.57 ± 0.046 h; the “total protein half-life in vivo” value under setting [6] was 2.77 ± 0.15 h. The “total protein half-life in vivo” value reads like this: under setting [7], 5.16 ± 0.2 h; under setting [8], 8.87 ± 0.33 h; under setting [9], 3.49 ± 0.091 h; under setting [10], 5.447 ± 0.037 h; under setting [11], 5.77 ± 0.57 h; under setting [12], 10.6 ± 0.48 h.
